T1: Recombinant human CD40L (human, UniProt P29965 108-261, limits assumed)
T1 construct: also called CD40 ligand
T1 sequence (looked up): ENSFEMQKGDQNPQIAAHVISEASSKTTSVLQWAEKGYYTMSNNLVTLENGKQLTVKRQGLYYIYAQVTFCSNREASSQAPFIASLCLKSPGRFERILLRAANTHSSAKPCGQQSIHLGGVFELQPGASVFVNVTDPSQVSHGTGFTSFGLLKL

B1: DOM.201 (other)
VH: EVQLLESGGGLVQPGGSLRLSCAASGFTFGNYSMGWVRQAPGKGLEWVSSIGRHGGRTYYADSVKGRFTISRDNSKNTLYLQMNSLRAEDTAVYYCAKKGSTYPRFDYWGQGTLVTVSS
notes: VH dAb
B2: DOM.195 (other)
VH: EVQLLESGGGLVQPGGSLRLSCAASGFTFGTYDMGWVRQAPGKGLEWVSRINWQGDRTYYADSVKGRFTISRDNSKNTLYLQMNSLRAEDTAVYYCAKAGFGHYVDGLGFDYWGQGTLVTVSS
notes: VH dAb
B3: DOM.181 (other)
VH: EVQLLESGGGLVQPGGSLRLSCAASGFTFAFYPMMWVRQAPGKGLEWVSWIDATGTRTYYADSVKGRFTISRDNSKNTLYLQMNSLRAEDTAVYYCAEGNYGSSYTMGVFDYWGQGTLVTVSS
notes: VH dAb
B4: DOM.199 (other)
VH: EVQLLESGGGLVQPGGSLRLSCAASGFTFERYGMTWVRQAPGKGLEWVSSIWPRGQKTYYADSVKGRFTISRDNSKNTLYLQMNSLRAEDTAVYYCAKGNSRYVFDYWGQGTLVTVSS
notes: VH dAb
B5: DOM-17 (other)
VH: EVQLLESGGGLVQPGGSLRLSCAASGFTFEDYGMGWARQAPGKGLEWVSSIGPLGLWTYYADSAKGRFTISRDNSKNTLYLQMNSLRAEDTAVYYCAKSPLEGLITNFDYWGQGTLVTVSS
notes: VH dAb
B6: DOM.197 (other)
VH: EVQLLESGGGLVQPGGSLRLSCAASGFTFAKYKMWWVRQAPGKGLEWVSSITPKGHSTYYADSVKGRFTISRDNSKNTLYLQMNSLRAEDTAVYYCAKRPMTPFDYWGQGTLVTVSS
notes: VH dAb
B7: DOM.149 (other)
VL: DIQMTQSPSSLSASVGDRVTITCRASQWIGRQLVWYQQKPGKAPKLLIYGATELQSGVPSRFSGSGSGTDFTLTISSLQPEDFATYYCQQQSKGPLTFGHGTKVEIKR
notes: Vk dAb
B8: DOM.207 (other)
VH: EVQLLESGGGLVQPGGSLRLSCAASGFTFDKYLMSWVRQAPGKGLEWVSGIEPLGDVTYYADSVKGRFTISRDNSKNTLYLQMNSLRAEDTAVYYCAKEASGDFDYWGQGTLVTVSS
notes: VH dAb
B9: DOM.209 (other)
VH: EVQLLESGGGLVQPGGSLRLSCAASGFTFADYEMWWVRQAPGKGLEWVSAISRQGFATYYADSVKGRFTISRDNSKNTLYLQMNSLRAEDTAVYYCAKDLERDDFDYWGQGTLVTVSS
notes: VH dAb
B10: DOM.198 (other)
VH: EVQLLESGGGLVQPGGSLRLSCAASGFTFERYNMSWVRQAPGKGLEWVSSIRPRGGKTYYADSVKGRFTISRDNSKNTLYLQMNSLRAEDTAVYYCAKWRREGYTGSKFDYWGQGTLVTVSS
notes: VH dAb
B11: DOM-21 (other)
VH: EVQLLESGGGLVQPGGSLRLSCAASGFTFANYEMGWARQAPGKGLEWVSVISEWGYSTYYADSAKGRFTISRDNSKNTLYLQMNSLRAEDTAVYYCAKLVGGTQYEFDYWGQGTLVTVSS
notes: VH dAb
B12: DOM.200 (other)
VH: EVQLLESGGGLVQPGGSLRLSCAASGFTFTNYSMGWVRQAPGKGLEWVSTIRPNGTKTYYADSVKGRFTISRDNSKNTLYLQMNSLRAEDTAVYYCAKRSSAHLQRFDYWGQGTLVTVSS
notes: VH dAb
B13: DOM.146 (other)
VL: DIRMTQSPSSLSASVGDRVTITCRASQWIGDSLAWYQQKPGKAPKLLIYGISELQSGVPSRFSGSGSGTDFTLTISSLQPEDSATYYCQLSSSMPHTFGQGTKVEIKR
notes: Vk dAb
B14: DOM-13 (other)
VH: EVQLLESGGGLVQPGGSLRLSCAASGFTFSYYSMYWVRQAPGKGLEWVSSISPFGWGTYYADSVKGRFTISRDNSKDTLYLQMNSLRAEDTAVYYCAKYGETSGPISENFDYWGQGTLVTVSS
notes: VH dAb
B15: DOM.204 (other)
VH: EVQLLESGGGLVQPGGSLRLSCAASGFTFKRYSMAWVRQAPGKGLEWVSDIGPRGFSTYYADSVKGRFTISRDNSKNTLYLQMNSLRAEDTAVYYCAKVGRGQRDTSQPFDYWGQGTLVTVSS
notes: VH dAb
B16: DOM.188 (other)
VH: EVQLLESGGGLVQPGGSLRLSCAASGFTFTRYRMSWVRQAPGKGLEWVSGISRDGYRTYYADSVKGRFTISRDNSKNTLYLQMNSLRAEDTAVYYCAKGMTASFDYWGQGTLVTVSS
notes: VH dAb
B17: DOM.192 (other)
VH: EVQLLESGGGLVQPGGSLRLSCAASGFTFSRYPMSWVRQAPGKGLEWVSSINRSGMRTYYADSVKGRFTISRDNSKNTLYLQMNSLRAEDTAVYYCAEGHQAPFDYWGQGTLVTVSS
notes: VH dAb
B18: DOM.187 (other)
VH: EVQLLESGGGLVQPGGSLRLSCAASGFTFSSYSMVWVRQAPGKGLEWVSGINRGGTRTYYADSVKGRFTISRDNSKNTLYLQMNSLRAEDTAVYYCAKGWRRGFDYWGQGTLVTVSS
notes: VH dAb
B19: DOM.194 (other)
VH: EVQLLESGGGLVQPGGSLRLSCAASGFTFKQYDMRWVRQAPGKGLEWVSTISQNGTKTYYADSVKGRFTISRDNSKNTLYLQMNSLRAEDTAVYYCAKSRTGRYFDYWGQGTLVTVSS
notes: VH dAb
B20: DOM-16 (other)
VH: EVQLLESGGGLVQPGGSLRLSCAASGFTFMEYAMIWVRQAPGKGLEWVSIISPLGLSTYYADSVKGRFTISRDNSKNTLYLQMNSLRAEDTAVYYCAKYQDSSDSQYTNFDYWGQGTLVTVSS
notes: VH dAb
B21: DOM.202 (other)
VH: EVQLLESGGGLVQPGGSLRLSCTASGFTFSHYEMGWVRQAPGKGLEWVSSIEPFGGGTYYADSVKGRFTISRDNSKNTLYLQMNSLRAEDTAVYYCAKVYPQGSFDYWGQGTLVTVSS
notes: VH dAb
B22: DOM.185 (other)
VH: EVQLLESGGGLVQPGGSLRLSCAASGFTFAHYPMSWVRQAPGKGLEWVSSIGRLGNRTYYADSVKGRFTISRDNSKNTLYLQMNSLRAEDTAVYYCAKRATPVPIKGLFDYWGQGTLVTVSS
notes: VH dAb
B23: DOM.203 (other)
VH: EVQLLESGGGLVQPGGSLRLSCAASGFTFSNYTMGWVRQAPGKGLEWVSSIRPDGKITYYADSVKGRFTISRDNSKNTLYLQMNSLRAEDTAVYYCAEVYSSCAMCTPLLFDYWGQGTLVTVSS
notes: VH dAb
B24: DOM.189 (other)
VH: EVQLLESGGGLVQPGGSLRLSCAASGFTFQMYPMGWVRQAPGKGLEWVSMIEPAGDLTYYADSVKGRFTISRDNSKNTLYLQMNSLRAEDTAVYYCAKYQEQPWFDYWGQGTLVTVSS
notes: VH dAb
B25: DOM.183 (other)
VH: EVQLLESGGGLVQPGGSLRLSCAASGFTFADYGMGWVRQAPGKGLEWVSSIQSSGLRTYYADSVKGRFTISRDNSKNTLYLQMNSLRAEDTAVYYCAKRANSRRGFDYWGQGTLVTVSS
notes: VH dAb
B26: DOM.176 (other)
VH: EVQLLESGGGLVQPGGSLRLSCAASGFTFDAYEMGWVRQAPGKGLEWVSIIDWDGNSTYYADSVKGRFTISRDNSKNTLYLQMNSLRAEDTAVYYCAKPGDNVGIFDYWGQGTLVTVSS
notes: VH dAb
B27: DOM.177 (other)
VH: EVQLLESGGGLVQPGGSLRLSCAASGFTFSNYYMVWVRQAPGKGLEWVSAIDEWGFATYYADSVKGRFTISRDNSKNTLYLQMNSLRAEDTAVYYCAKHWEFTSDTSRFDYWGQGTLVTVSS
notes: VH dAb
B28: DOM.191 (other)
VH: EVQLLESGGGLVQPGGSLRLSCAASGFTFKLYPMTWVRQAPGKGLEWVSSIDAGGHETYYADSVKGRFTISRDNSKNTLYLQMNSLRAEDTAVYYCAKDWWDYLFDYWGQGTLVTVSS
notes: VH dAb
B29: DOM-18 (other)
VH: EVQLLESGGGLVQPGGSLRLSCAASGFTFPEYDMTWVRQAPGKGLEWVSYISSDGYSTYYADSVKGRFTISRDNSKNTLYLQMNSLRAEDTAVYYCAKPHGSPREFDYWGQGTLVTVSS
notes: VH dAb
B30: DOM-12 (other)
VH: EVQLLESGGGLVQPGGSLRLSCAASGFTFRLYEMAWVRQAPGKGLEWVSGIDILGSRTYYADSVKGRFTISRDNSKNTLYLQMNSLRAEDTAVYYCAKDLSWQGFDYWGQGTLVTVSS
notes: VH dAb
B31: DOM.182 (other)
VH: EVQLLESGGGLVQPGGSLRLSCAASGFTFDEYPMYWVRQAPGKGLEWVSSIGPSGPNTYYADSVKGRFTISRDNSKNTLYLQMNSLRAEDTAVYYCAKSPYFDVIPSYFDYWGQGTLVTVSS
notes: VH dAb

The target in the test is T1, Recombinant human CD40L. Description: CD40L/CD40-Fc receptor binding assay.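 Further: plate assay with coated human CD40-Fc, bound ligand detected via HRP anti-biotin antibody and TMB, OD at 450 nm, lower signal indicates stronger inhibition by dAb.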
On to B1, for which the binding result was “binds”. Consider B2, for which the binding result is “binds”.

For B3, the binding result is on record as “binds”. With B4, the binding result is “binds”. Under B5 stands “binds”; under B6, “binds”. Then B7, with “binds”; and B8, with “binds”; and B9, with “binds”.

B10: the binding result was “binds”. Then B11, with “binds”. Then B12, with “binds”; and B13, with “binds”. On to B14, for which the binding result was “binds”. Under B15 stands “binds”; under B16, “binds”; under B17, “binds”. Under B18 stands “binds”; under B19, “binds”. Then B20, with “binds”.

Turning to B21, the binding result is given as “binds”.

As to B22, the binding result is on record as “binds”. Then B23, with “binds”. Then B24, with “binds”; and B25, with “binds”; and B26, with “binds”. Then B27, with “binds”; and B28, with “binds”. As to B29, the binding result is given as “binds”. Then B30, with “binds”; and B31, with “binds”.

Values taken from patent US20090297524A1 (DOMANTIS, published 2009).
